Test results: patent publication US20140255415A1 (Novartis, published 2014)
Where a chain is given by its changes, count along the chain named.

Assays:
[1] = target: T1, rat LINGO-1 expressed on CHO-K1 cells (CHO-K1-rLINGO-1) (rat, UniProt A0A8I5ZPI2 34-614); experiment: apparent KD, FACS saturation binding on CHO-K1-rLINGO-1 cells, Fab format
T1 construct: range 34-614; not shown: 2 amino acid residue linker
T1 sequence: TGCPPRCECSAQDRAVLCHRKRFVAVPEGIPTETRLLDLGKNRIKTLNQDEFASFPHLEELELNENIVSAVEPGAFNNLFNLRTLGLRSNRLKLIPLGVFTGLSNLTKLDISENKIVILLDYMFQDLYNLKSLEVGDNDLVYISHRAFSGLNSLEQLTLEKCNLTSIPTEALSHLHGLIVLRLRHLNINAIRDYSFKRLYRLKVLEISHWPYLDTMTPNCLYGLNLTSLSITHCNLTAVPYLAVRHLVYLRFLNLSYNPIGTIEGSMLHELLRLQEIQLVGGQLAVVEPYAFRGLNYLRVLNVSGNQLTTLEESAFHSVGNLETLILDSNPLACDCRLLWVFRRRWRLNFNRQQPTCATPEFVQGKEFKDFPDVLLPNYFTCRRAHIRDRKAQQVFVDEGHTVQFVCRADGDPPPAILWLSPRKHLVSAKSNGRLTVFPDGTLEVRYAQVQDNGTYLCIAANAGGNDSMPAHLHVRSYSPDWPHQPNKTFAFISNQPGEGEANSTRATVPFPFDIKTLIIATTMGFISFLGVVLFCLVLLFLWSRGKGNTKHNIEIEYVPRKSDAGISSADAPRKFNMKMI
Experimental: (§1) Cell based affinity of anti-LINGO-1 specific antibodies is determined by FACS saturation binding experiments. […] Otherwise the staining procedure is done identical to the FACS staining procedure described above.
(§2) In detail, CHO-K1-hLINGO-1, CHO-K1-cmLINGO-1 or CHO-K1-rLINGO-1 are detached from culture flasks by versene, washed with FACS buffer and resuspended in FACS buffer. Purified anti-LINGO-1 Fabs are serially diluted in FACS buffer and spread into round bottom 96-well microtiter plates (NUNC™, Wiesbaden, Germany). For each concentration, duplicate wells are incubated with 1.25×10⁴ cells for 30-60 min on ice in a total volume of 100 μl.

[2] = target: T2, human LINGO-1-ΔLRR-Fc (Igleader-hsLINGO-1-ΔLRR-Fc) (human, UniProt Q96FE5 40-556); experiment: ELISA, captured Fc fusion protein
T2 construct: Heterologous secretion signal left out; also called human LINGO-1 lacking the LRR domain
T2 sequence: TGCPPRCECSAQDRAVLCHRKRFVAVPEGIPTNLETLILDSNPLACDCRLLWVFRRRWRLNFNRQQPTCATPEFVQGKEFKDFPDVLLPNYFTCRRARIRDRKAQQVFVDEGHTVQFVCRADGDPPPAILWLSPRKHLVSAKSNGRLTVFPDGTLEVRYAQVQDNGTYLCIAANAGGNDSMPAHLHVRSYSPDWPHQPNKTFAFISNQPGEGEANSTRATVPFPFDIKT

[3] = target: T3, human NgR-Fc fusion protein (R&D Systems) (human, UniProt Q9BZR6 27-447, limits assumed); experiment: ELISA, captured Fc fusion protein
T3 construct: Commercial protein; also called captured human NgR-Fc; not shown: Fc part of the commercial fusion protein; not described
T3 sequence (looked up): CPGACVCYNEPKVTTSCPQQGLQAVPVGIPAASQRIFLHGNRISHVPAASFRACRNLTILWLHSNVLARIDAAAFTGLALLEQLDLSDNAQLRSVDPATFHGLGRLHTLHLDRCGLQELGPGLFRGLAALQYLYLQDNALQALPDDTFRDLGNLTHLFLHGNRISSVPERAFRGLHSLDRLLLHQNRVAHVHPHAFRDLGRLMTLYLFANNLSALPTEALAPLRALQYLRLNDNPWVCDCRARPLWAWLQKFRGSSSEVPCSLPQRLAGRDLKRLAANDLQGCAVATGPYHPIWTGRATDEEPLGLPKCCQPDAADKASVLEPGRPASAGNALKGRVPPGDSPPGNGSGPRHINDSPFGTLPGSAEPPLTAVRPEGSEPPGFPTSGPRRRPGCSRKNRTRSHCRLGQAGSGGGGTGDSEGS

[4] = target: T4, cynomolgus monkey LINGO-1 expressed on CHO-K1 cells (CHO-K1-cmLINGO-1) (cynomolgus monkey, UniProt Q9N008 34-614); experiment: apparent KD, FACS saturation binding on CHO-K1-cmLINGO-1 cells, Fab format
T4 construct: range 34-614; also called Cynomolgus LINGO-1; not shown: 2 amino acid residue linker
T4 sequence (looked up): T1 sequence with G261S, V286M, A315V, H386R, S494P
Experimental: as §1, §2

[5] = target: T2, human LINGO-1-ΔLRR-Fc …; experiment: ELISA, Fc fusion captured via goat anti-human IgG Fc, Fab detected with AP-conjugated secondary and AttoPhos
[6] = target: T3, human NgR-Fc fusion protein (R&D …); experiment: as above
[7] = target: T5, human LINGO-1-Fc fusion protein (natleader-hsLINGO-1-Fc) (human, UniProt Q96FE5 42-556); experiment: as above
T5 construct: also called human recombinant LINGO-1-Fc; captured human LINGO-1-Fc; not shown: protein lette
T5 sequence: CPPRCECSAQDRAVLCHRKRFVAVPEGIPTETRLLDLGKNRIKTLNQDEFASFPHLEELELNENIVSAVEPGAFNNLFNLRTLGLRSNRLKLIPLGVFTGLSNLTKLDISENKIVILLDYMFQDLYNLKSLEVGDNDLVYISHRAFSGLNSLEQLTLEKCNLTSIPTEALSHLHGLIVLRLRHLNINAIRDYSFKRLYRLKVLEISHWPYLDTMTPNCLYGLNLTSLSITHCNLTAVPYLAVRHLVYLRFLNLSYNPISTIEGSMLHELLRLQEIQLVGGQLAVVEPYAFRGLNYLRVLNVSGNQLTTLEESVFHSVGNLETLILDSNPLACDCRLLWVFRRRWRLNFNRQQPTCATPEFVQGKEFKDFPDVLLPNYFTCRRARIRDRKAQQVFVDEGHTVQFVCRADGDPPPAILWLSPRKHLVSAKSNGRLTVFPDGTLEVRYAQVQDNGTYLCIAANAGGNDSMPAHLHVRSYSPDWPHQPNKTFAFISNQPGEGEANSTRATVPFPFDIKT

[8] = target: human LINGO-1 expressed on CHO-K1 cells (CHO-K1-hLINGO-1) (human) (UniProt Q96FE5); experiment: apparent KD, FACS saturation binding on CHO-K1-hLINGO-1 cells, Fab format
Unrelated Fc = experiment: ELISA, Fc fusion captured via goat anti-human IgG Fc, Fab detected with AP-conjugated secondary and AttoPhos

Kd [1]: 24 nM | binding result [2]: no binding | binding result [3]: no binding | Kd [4]: 27.1 nM | relative fluorescence units (RFU) [5]: 49 RFU | relative fluorescence units (RFU) [6]: 68 RFU | relative fluorescence units (RFU) [7]: 98 RFU | Kd [8]: 14.1 nM | relative fluorescence units (RFU) (Unrelated Fc): 52 RFU
B1: anti-LINGO-1 Fab 4784 (Fab, V domains shown)
VH: QVQLKESGPALVKPTQTLTLTCTFSGFSLSSSGVGVGWIRQPPGKALEWLAHIGSDDDKYYSTSLKTRLTISKDTSKNQVVLTMTNMDPVDTATYYCARNQQYGDGYPGYFDYWGQGTLVTVSS
VL: DIELTQPPSVSVAPGQTARISCSGDNIGNYYVYWYQQKPGQAPVLVIYEDTNRPSGIPERFSGSNSGNTATLTISGTQAEDEADYYCQSYDNLHEQVFGGGTKLTVLG
